Laboratory results taken from article PMC314469, “Protein Interaction Networks by Proteome Peptide Scanning” (PLoS Biology, 2004).

T1: Abp1 SH3 (ABP1_YEAST), P15891
T1 chain: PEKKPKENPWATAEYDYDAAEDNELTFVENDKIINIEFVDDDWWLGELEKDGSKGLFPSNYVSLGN


Biological target: T1, Abp1 SH3 (ABP1_YEAST), P15891
Experiment: SPOT array

| Binder | normalised SPOT signal, Boehringer light units (BLU); mean over the file's lines of this peptide |
| --- | --- |
| GDEGNRNITAPPRP [YHR031C 65-78] | 77.6 |
| GDELSQGPNVLKP [YDR305C 168-180] | 67.5 |
| GDTVYIVHWEPSKP [YIL154C 237-250] | 48 |
| FSVLIYESLDPDRP [YIR032C 164-177] | 143 |
| GAGVLAMPFAFKP [YBL089W 68-80] | 79.6 |
| FWKSLYPELTPYKP [YKR051W 189-202] | 97.4 |
| FNVPSQKPLNSKP [YHR103W 279-291] | 955 |
| FYYWLGVPSFQRP [YHR171W 136-148] | 97 |
| FQVVLDTPQGLKP [YFR037C 187-199] | 103 |
| FNTPVDSPSVSRP [YER040W 639-651] | 94.4 |
| FINVSHSPLVPKP [YHR034C 60-72] | 76.6 |
| FNVQDVRPDLFRP [YDR080W 297-309] | 100 |
| FKRAGLIPIRLRP [YDR072C 45-57] | 411 |
| FREPERKTSVPVRP [YIL156W 221-234] | 773 |
| FSEKPEETPNPLKP [YKL077W 64-77] | 170 |
| GSNATADVSPPKKP [YDL118W 75-88] | 67.3 |
| GGIIPTVNGKPVRP [YBR012W-A 198-211] | 430 |
| FKVMVANPRKSKP [YKL189W 299-311] | 2270 |
| FLDVLKIKPLPYKP [YER093C 581-594] | 316 |

| Binder | normalised SPOT signal, Boehringer light units (BLU); mean over the file's lines of this peptide |
| --- | --- |
| FKRSIGASHAPLKP [YER161C 100-113] | 145 |
| FVYPFIRRYTPLKP [YKR093W 407-420] | 125 |
| FTYAYVSPTKLKP [YGL140C 277-289] | 170 |
| FSGVTNQPSPIRP [YER129W 662-674] | 67.2 |
| FRGDYGNNISPERP [YAL017W 277-290] | 106 |
| GEEHEPVVEIPKRP [YDR342C 45-58] | 70.9 |
| GASTIPASNNPSKP [YIL130W 103-116] | 90.9 |
| FQLPTRLPAFERP [YDL150W 307-319] | 353 |
| FTNLQAKPLVGKP [YAR002W 429-441] | 4290 |
| GATTLKPATLPAKP [YIL038C 384-397] | 160 |
| FNGNSRLMMIPKKP [YDL073W 594-607] | 4150 |
| FYILDKFPLEIRP [YLL018C 442-454] | 20 |
| GIFNALPPPNTKP [YDL046W 25-37] | 136 |
| GAGILAMPYAFKP [YER119C 18-30] | 62.2 |
| FLNDVEEEESPVKP [YLL021W 576-589] | 123 |
| GGKYQGFGSTPAKP [YDL226C 208-221] | 56.7 |
| FLSIHFPTDYPFKP [YBR082C 52-65] | 95.8 |
| FSGSLKLPNSPRP [YGL135W 49-61] | 478 |

Other lines, results leading:

| normalised SPOT signal, Boehringer light units (BLU); mean over the file's lines of this peptide | Binder |
| --- | --- |
| 82.3 | GALLDEAPEHPRP [YNL314W 80-92] |
| 13.4 | GEGHSDQPQNPKP [YML118W 352-364] |
| 230 | FIQQMMDPSKAKP [YPL082C 1249-1261] |
| 92 | FSHTGLTSFTPERP [YOL138C 597-610] |
| 63 | FLHGNTNAPTPLRP [YPR099C 84-97] |
| 121 | GDLGKEFGTTPEKP [YPL231W 188-201] |
| 217 | FTDNSLLPSLIKP [YOR317W 178-190] |
| 35 | FPPNEAPMLSPQRP [YLR006C 159-172] |
| 57.2 | GIKTRKFVFNPPKP [YOR065W 294-307] |
| 1130 | GATFAVKEFRPRKP [YOR267C 238-251] |
| 147 | FSDKNTIPPNEKP [YPR022C 372-384] |
| 2180 | FSLMFNTSRLPGKP [YML042W 214-227] |
| 51.2 | GDKYQVDPKTSKP [YLR454W 1837-1849] |
| 238 | FPDWSMGPNSAKP [YPL089C 527-539] |
| 831 | FNKTRFVPGSNKP [YPL272C 132-144] |
| 246 | FQFLNNTPKMLKP [YLR190W 87-99] |
| 51.6 | GDAFQDVEGKPLRP [YOR229W 116-129] |
| 196 | FVFFKSLPDLPKP [YML104C 41-53] |
| 158 | FSAAEIWPTKGKP [YMR228W 229-241] |
| 78.1 | GDHLQNDPLSLRP [YOR316C 398-410] |
| 28.8 | FQLIYFFPDLIKP [YOL107W 265-277] |
